Laboratory results as given in patent US20050164933A1.
No end group written: not given here. *: point of attachment. Biotin = O=C1N[C@H]2[C@H](CS[C@H]2CCCCC(=O)*)N1

Legend:
Assay in all cases: G3 assay titration, immobilised GST-PDZ
[1] = target: T1, GST-ZO-1 PDZ domain 2 fusion protein (human)
T1 chain: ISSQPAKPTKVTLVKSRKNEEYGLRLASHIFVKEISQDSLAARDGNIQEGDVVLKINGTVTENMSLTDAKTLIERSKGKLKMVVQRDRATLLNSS

[2] = target: T2, GST-INADL PDZ domain 3 fusion protein (human), Q8NI35
T2 chain: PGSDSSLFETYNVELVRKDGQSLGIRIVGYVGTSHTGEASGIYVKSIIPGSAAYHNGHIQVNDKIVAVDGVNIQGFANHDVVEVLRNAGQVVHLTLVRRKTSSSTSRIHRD

[3] = target: T3, GST-SITAC 18 PDZ domain 1 fusion protein (human), Q9H190
T3 chain: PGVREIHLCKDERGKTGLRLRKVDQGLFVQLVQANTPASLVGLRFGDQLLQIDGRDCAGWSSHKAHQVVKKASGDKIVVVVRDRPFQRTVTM

[4] = target: T4, GST-MUPP1 PDZ domain 3 fusion protein (human), O75970
T4 chain: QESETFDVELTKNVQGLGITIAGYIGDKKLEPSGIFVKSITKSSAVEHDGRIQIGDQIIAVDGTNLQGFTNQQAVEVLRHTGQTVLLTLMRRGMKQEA

[5] = target: T5, GST-RIM2 PDZ domain 1 fusion protein (human)
T5 chain: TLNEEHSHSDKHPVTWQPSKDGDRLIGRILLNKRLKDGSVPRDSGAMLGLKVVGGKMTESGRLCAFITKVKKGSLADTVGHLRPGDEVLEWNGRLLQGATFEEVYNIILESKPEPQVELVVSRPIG

[6] = target: GST-PAR3 PDZ domain 3 fusion protein (human), Q8TEW0
[7] = target: T6, GST-MINT1 PDZ domain 2 fusion protein (human)
T6 chain: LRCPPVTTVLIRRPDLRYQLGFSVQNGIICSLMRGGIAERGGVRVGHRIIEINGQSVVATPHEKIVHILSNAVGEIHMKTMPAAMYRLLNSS

[8] = target: GST-PAR3L PDZ domain 3 fusion protein (human), Q8TEW8
[9] = target: T7, GST-TIP1 PDZ domain 1 fusion protein (human), O14907
T7 chain: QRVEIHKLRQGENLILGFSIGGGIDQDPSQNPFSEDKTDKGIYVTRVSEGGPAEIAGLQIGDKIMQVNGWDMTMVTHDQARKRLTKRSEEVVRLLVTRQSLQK

[10] = target: T8, GST-Syntrophin 1 alpha PDZ domain 1 fusion protein (human), Q13424
T8 chain: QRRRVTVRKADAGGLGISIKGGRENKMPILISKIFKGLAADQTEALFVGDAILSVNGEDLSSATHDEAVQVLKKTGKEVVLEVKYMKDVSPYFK

[11] = target: T9, GST-MAST2 PDZ domain 1 fusion protein (human), Q6P0Q8
T9 chain: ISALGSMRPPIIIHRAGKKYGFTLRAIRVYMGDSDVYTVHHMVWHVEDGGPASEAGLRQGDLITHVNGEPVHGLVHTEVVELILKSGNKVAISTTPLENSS

[12] = target: T10, GST-LIM mystique PDZ domain 1 fusion protein (human), Q96JY6
T10 chain: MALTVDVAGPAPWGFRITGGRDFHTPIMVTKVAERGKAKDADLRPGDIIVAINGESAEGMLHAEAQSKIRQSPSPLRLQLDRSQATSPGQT

[13] = target: T11, GST-MINT1 PDZ domain 1 fusion protein (human)
T11 chain: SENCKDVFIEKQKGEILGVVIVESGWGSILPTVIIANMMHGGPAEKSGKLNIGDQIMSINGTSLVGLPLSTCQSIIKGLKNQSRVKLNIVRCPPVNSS

[14] = target: T12, GST-KIAA1284 PDZ domain 1 fusion protein (human), Q9ULD6
T12 chain: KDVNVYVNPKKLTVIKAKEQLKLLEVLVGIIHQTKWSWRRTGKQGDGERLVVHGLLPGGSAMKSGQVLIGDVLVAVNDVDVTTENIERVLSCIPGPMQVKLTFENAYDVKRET

[15] = target: T13, GST-SITAC 18 PDZ domain 2 fusion protein (human), Q9H190
T13 chain: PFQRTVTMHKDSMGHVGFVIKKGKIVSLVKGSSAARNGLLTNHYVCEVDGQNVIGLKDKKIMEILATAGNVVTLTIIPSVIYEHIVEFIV

[16] = target: T14, GST-MINT1 PDZ domains 1,2 fusion protein (human)
T14 chain: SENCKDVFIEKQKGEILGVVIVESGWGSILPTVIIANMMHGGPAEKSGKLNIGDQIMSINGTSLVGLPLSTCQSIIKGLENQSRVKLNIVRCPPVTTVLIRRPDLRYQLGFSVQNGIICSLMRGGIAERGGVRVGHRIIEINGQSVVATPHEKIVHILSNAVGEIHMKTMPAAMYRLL

Chain of GST-PAR3 PDZ domain 3 fusion protein (human), Q8TEW0 (Q8TEW0 other isoform, or with tags, fused parts or gaps): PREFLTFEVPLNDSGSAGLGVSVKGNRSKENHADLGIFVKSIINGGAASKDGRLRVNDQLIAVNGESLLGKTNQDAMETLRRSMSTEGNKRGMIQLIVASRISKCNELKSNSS
Chain of GST-PAR3L PDZ domain 3 fusion protein (human), Q8TEW8 (Q8TEW8 other isoform, or with tags, fused parts or gaps): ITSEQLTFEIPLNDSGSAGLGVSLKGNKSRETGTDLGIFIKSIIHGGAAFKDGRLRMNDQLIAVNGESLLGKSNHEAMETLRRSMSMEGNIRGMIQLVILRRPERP

What does the source list for Biotin-YGRKKRRQRRRQDERRLIVL [Peptide #1842 (biotin-…)]?
EC50 [1]: 35 nM; ODmax (450 nm) [1]: 2.3 OD 450 nm; EC50 [2]: < 1000 nM; ODmax (450 nm) [2]: 1.9 OD 450 nm

What does the source list for Biotin-YGRKKRRQRRRARGRRETWV [Peptide #1854 (biotin-…)]?
ODmax (450 nm) [1]: 2.8 OD 450 nm; EC50 [2]: < 20 nM; ODmax (450 nm) [2]: 2.1 OD 450 nm

For Biotin-YGRKKRRQRRRARGDRYRIV [Peptide #1845 (biotin-…)], which EC50 [1] is on record?
Its EC50 is under 100 nM.

And the ODmax (450 nm) [1]?
Its ODmax (450 nm) is 2.3 OD 450 nm.

What about the EC50 [2] of the same binder?
Its EC50 is under 100 nM.

And the ODmax (450 nm) [2]?
Its ODmax (450 nm) is 2.2 OD 450 nm.

For Biotin-YGRKKRRQRRRSRTDRKYWA [Peptide #1832 (biotin-…)], which EC50 [1] is on record?
The EC50 was under 20 nM.

What about the ODmax (450 nm) [1] of the same binder?
Its ODmax (450 nm) is 2.1 OD 450 nm.

And the EC50 [2]?
The EC50 was 200 nM.

And the ODmax (450 nm) [2]?
The ODmax (450 nm) was 0.6 OD 450 nm.

What does the source list for YGRKKRRQRRRSTNSVRLML (not fully specified)?
EC50 [3]: < 1000 nM; ODmax (450 nm) [3]: 1.7 OD 450 nm; EC50 [4]: 290 nM; ODmax (450 nm) [4]: 2.06 OD 450 nm; EC50 [5]: 47 nM; ODmax (450 nm) [5]: 2.1 OD 450 nm; EC50 [6]: 18 nM; ODmax (450 nm) [6]: 2.5 OD 450 nm; EC50 [7]: < 2000 nM; ODmax (450 nm) [7]: 0.76 OD 450 nm; EC50 [8]: 100 nM; ODmax (450 nm) [8]: 1.97 OD 450 nm; EC50 [9]: < 1000 nM; ODmax (450 nm) [9]: 1.82 OD 450 nm; EC50 [10]: 160 nM; ODmax (450 nm) [10]: 2.05 OD 450 nm; EC50 [11]: 110 nM; ODmax (450 nm) [11]: 2.1 OD 450 nm; EC50 [12]: 90 nM; ODmax (450 nm) [12]: 2.1 OD 450 nm; ODmax (450 nm) [13]: 0.33 OD 450 nm; ODmax (450 nm) [14]: 0.63 OD 450 nm; EC50 [1]: 33 nM; ODmax (450 nm) [1]: 2.2 OD 450 nm; EC50 [2]: 120 nM; ODmax (450 nm) [2]: 1.9 OD 450 nm; EC50 [15]: 90 nM; ODmax (450 nm) [15]: 1.95 OD 450 nm; EC50 [16]: 180 nM; ODmax (450 nm) [16]: 1.9 OD 450 nm

How did the EC50 [1] turn out when Biotin-YGRKKRRQRRRARSDRTIIA [Peptide #1830 (biotin-…)] was run?
The EC50 was under 20 nM.

And the ODmax (450 nm) [1]?
The ODmax (450 nm) was 1.8 OD 450 nm.

And the EC50 [2]?
The EC50 was under 2000 nM.

What about the ODmax (450 nm) [2] of the same binder?
The ODmax (450 nm) was 1.2 OD 450 nm.

Which EC50 [1] does the source give for Biotin-YGRKKRRQRRRARTDRKVEV [Peptide #1837 (biotin-…)] here?
The EC50 was under 20 nM.

And the ODmax (450 nm) [1]?
The ODmax (450 nm) was 1.8 OD 450 nm.

What about the ODmax (450 nm) [2] of the same binder?
Its ODmax (450 nm) is 0.37 OD 450 nm.

How did the EC50 [1] turn out when Biotin-YGRKKRRQRRRARSDRTIWA [Peptide #1829 (biotin-…)] was run?
Its EC50 is 7 nM.

And the ODmax (450 nm) [1]?
The ODmax (450 nm) was 2.9 OD 450 nm.

And the ODmax (450 nm) [2]?
The ODmax (450 nm) was 1.4 OD 450 nm.

Biotin-YGRKKRRQRRREKHFRETEV [Peptide #AA353 (biotin-…)] was tested. Which EC50 [9] did it give?
The EC50 was under 2 nM.

And the ODmax (450 nm) [9]?
Its ODmax (450 nm) is 3 OD 450 nm.

Which EC50 [1] does the source give for Biotin-YGRKKRRQRRRARGTRLVWV [Peptide #1844 (biotin-…)] here?
Its EC50 is under 20 nM.

And the ODmax (450 nm) [1]?
Its ODmax (450 nm) is 2.6 OD 450 nm.

And the EC50 [2]?
The EC50 was under 20 nM.

And the ODmax (450 nm) [2]?
Its ODmax (450 nm) is 2.4 OD 450 nm.

For Biotin-YGRKKRRQRRRARGDRTIIY [Peptide #1848 (biotin-…)], which EC50 [1] is on record?
The EC50 was under 20 nM.

What about the ODmax (450 nm) [1] of the same binder?
The ODmax (450 nm) was 2.2 OD 450 nm.

What about the EC50 [2] of the same binder?
Its EC50 is under 2000 nM.

And the ODmax (450 nm) [2]?
Its ODmax (450 nm) is 1.2 OD 450 nm.

What does the source list for Biotin-YGRKKRRQRRRARGDRKYIV [Peptide #1838 (biotin-…)]?
EC50 [1]: < 100 nM; ODmax (450 nm) [1]: 2.6 OD 450 nm; EC50 [2]: < 100 nM; ODmax (450 nm) [2]: 2.6 OD 450 nm

With Biotin-YGRKKRRQRRRARGDRKIRV [Peptide #1836 (biotin-…)] as the binder, how does the EC50 [1] read?
The EC50 was under 10 nM.

What about the ODmax (450 nm) [1] of the same binder?
The ODmax (450 nm) was 2.6 OD 450 nm.

What about the ODmax (450 nm) [2] of the same binder?
Its ODmax (450 nm) is 0.3 OD 450 nm.

Which EC50 [1] does the source give for Biotin-YGRKKRRQRRRSRTDRKYQI [Peptide #1839 (biotin-…)] here?
Its EC50 is under 20 nM.

What about the ODmax (450 nm) [1] of the same binder?
The ODmax (450 nm) was 2.5 OD 450 nm.

And the EC50 [2]?
Its EC50 is 130 nM.

And the ODmax (450 nm) [2]?
Its ODmax (450 nm) is 1.6 OD 450 nm.

With Biotin-YGRKKRRQRRRARGDRLVSL [Peptide #1843 (biotin-…)] as the binder, how does the EC50 [1] read?
Its EC50 is 17 nM.

And the ODmax (450 nm) [1]?
Its ODmax (450 nm) is 2.2 OD 450 nm.

What about the EC50 [2] of the same binder?
Its EC50 is under 2000 nM.

And the ODmax (450 nm) [2]?
The ODmax (450 nm) was 1.2 OD 450 nm.
